T1: human sodium-dependent phosphate transporter 2B (NaPi2b) (human, UniProt O95436 1-690)
T1 construct: UniProt ID is given as 095436 [sic]; also called hNaPi2b; Hu NaPi2b
T1 sequence: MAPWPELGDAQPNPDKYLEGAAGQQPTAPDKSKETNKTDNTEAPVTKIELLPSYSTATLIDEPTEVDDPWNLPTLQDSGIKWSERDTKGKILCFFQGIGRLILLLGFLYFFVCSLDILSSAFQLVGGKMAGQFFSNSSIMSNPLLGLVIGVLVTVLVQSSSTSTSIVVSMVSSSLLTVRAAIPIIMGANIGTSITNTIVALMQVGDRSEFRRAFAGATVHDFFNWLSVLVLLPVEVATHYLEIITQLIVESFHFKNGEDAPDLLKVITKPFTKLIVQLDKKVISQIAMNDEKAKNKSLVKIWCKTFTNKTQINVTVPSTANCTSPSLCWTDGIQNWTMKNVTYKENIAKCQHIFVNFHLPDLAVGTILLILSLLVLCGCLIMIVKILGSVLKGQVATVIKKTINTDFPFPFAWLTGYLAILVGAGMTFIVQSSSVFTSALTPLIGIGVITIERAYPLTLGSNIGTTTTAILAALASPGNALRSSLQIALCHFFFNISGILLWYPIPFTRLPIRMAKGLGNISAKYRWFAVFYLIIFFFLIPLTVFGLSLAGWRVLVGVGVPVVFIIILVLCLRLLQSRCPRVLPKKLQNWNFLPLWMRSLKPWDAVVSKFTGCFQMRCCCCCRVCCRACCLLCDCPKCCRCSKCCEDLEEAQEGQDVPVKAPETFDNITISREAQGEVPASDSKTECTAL

T2: cynomolgus monkey NaPi2b (cynomolgus monkey, UniProt O95436 1-690 (human entry))
T2 construct: also called Cyno NaPi2b; Cy NaPi2b
T2 chain: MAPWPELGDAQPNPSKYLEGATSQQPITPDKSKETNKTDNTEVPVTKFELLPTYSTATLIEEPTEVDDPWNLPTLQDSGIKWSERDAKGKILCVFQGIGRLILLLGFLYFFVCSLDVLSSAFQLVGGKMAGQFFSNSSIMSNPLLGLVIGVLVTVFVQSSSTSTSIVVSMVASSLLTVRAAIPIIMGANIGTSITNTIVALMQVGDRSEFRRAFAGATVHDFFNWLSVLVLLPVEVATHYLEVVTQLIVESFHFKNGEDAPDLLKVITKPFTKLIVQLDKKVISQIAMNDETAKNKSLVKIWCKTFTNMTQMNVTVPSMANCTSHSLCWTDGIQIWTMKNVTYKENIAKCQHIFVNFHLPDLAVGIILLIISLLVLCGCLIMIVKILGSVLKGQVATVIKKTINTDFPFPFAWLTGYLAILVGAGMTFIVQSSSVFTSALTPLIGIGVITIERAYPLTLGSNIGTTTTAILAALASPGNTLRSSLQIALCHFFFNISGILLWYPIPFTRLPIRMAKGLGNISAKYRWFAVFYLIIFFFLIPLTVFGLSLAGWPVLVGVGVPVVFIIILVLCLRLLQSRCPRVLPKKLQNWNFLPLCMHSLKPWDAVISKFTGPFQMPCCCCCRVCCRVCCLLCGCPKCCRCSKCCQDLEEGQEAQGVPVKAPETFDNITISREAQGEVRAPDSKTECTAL

T3: mouse NaPi2b (mouse, UniProt Q9DBP0 1-697)
T3 construct: also called Ms NaPi2b; CL #13476
T3 sequence: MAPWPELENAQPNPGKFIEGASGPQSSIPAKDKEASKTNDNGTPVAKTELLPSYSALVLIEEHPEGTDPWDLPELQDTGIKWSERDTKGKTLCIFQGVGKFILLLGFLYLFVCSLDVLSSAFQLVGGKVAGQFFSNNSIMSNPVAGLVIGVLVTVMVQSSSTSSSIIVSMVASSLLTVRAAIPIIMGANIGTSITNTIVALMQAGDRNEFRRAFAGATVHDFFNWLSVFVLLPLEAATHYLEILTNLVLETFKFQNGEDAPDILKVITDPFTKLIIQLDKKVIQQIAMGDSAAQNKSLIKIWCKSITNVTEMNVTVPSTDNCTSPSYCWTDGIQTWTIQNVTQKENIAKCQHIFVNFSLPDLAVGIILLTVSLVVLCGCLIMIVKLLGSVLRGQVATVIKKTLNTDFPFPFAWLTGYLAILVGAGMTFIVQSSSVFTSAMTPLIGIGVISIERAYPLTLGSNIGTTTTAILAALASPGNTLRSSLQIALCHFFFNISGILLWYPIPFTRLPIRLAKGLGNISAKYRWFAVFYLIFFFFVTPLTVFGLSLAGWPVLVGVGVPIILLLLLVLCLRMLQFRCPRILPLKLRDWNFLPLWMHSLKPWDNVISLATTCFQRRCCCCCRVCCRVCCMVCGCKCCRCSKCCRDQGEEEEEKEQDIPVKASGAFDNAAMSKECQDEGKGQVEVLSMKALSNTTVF

B1: v18993 (lifastuzumab), reference anti-NaPi2b antibody (antibody, human IgG1, kappa)
heavy 1: GEVQLVESGGGLVQPGGSLRLSCAASGFSFSDFAMSWVRQAPGKGLEWVATIGRVAFHTYYPDSMKGRFTISRDNSKNTLYLQMNSLRAEDTAVYYCARHRGFDVGHFDFWGQGTLVTVSSASTKGPSVFPLAPSSKSTSGGTAALGCLVKDYFPEPVTVSWNSGALTSGVHTFPAVLQSSGLYSLSSVVTVPSSSLGTQTYICNVNHKPSNTKVDKKVEPKSCDKTHTCPPCPAPELLGGPSVFLFPPKPKDTLMISRTPEVTCVVVDVSHEDPEVKFNWYVDGVEVHNAKTKPREEQYNSTYRVVSVLTVLHQDWLNGKEYKCKVSNKALPAPIEKTISKAKGQPREPQVYVYPPSRDELTKNQVSLTCLVKGFYPSDIAVEWESNGQPENNYKTTPPVLDSDGSFALVSKLTVDKSRWQQGNVFSCSVMHEALHNHYTQKSLSLSPG
heavy 2: not shown
light: GDIQMTQSPSSLSASVGDRVTITCRSSETLVHSSGNTYLEWYQQKPGKAPKLLIYRVSNRFSGVPSRFSGSGSGTDFTLTISSLQPEDFATYYCFQGSFNPLTFGQGTKVEIKRTVAAPSVFIFPPSDEQLKSGTASVVCLLNNFYPREAKVQWKVDNALQSGNSQESVTEQDSKDSTYSLSSTLTLSKADYEKHKVYACEVTHQGLSSPVTKSFNRGEC
B2: v22277 (palivizumab, anti-RSV negative control, heterodimeric Fc) (antibody, human IgG1, kappa)
heavy 1: GQVTLRESGPALVKPTQTLTLTCTFSGFSLSTSGMSVGWIRQPPGKALEWLADIWWDDKKDYNPSLKSRLTISKDTSKNQVVLKVTNMDPADTATYYCARSMITNWYFDVWGAGTTVTVSSASTKGPSVFPLAPSSKSTSGGTAALGCLVKDYFPEPVTVSWNSGALTSGVHTFPAVLQSSGLYSLSSVVTVPSSSLGTQTYICNVNHKPSNTKVDKKVEPKSCDKTHTCPPCPAPELLGGPSVFLFPPKPKDTLMISRTPEVTCVVVDVSHEDPEVKFNWYVDGVEVHNAKTKPREEQYNSTYRVVSVLTVLHQDWLNGKEYKCKVSNKALPAPIEKTISKAKGQPREPQVYVYPPSRDELTKNQVSLTCLVKGFYPSDIAVEWESNGQPENNYKTTPPVLDSDGSFALVSKLTVDKSRWQQGNVFSCSVMHEALHNHYTQKSLSLSPG
heavy 2: not shown
light: GDIQMTQSPSTLSASVGDRVTITCKSQLSVGYMHWYQQKPGKAPKLLIYDTSKLASGVPSRFSGSGSGTEFTLTISSLQPDDFATYYCFQGSGYPFTFGGGTKLEIKRTVAAPSVFIFPPSDEQLKSGTASVVCLLNNFYPREAKVQWKVDNALQSGNSQESVTEQDSKDSTYSLSSTLTLSKADYEKHKVYACEVTHQGLSSPVTKSFNRGEC
notes: also called neg control
B3: v18992 (MX35), reference anti-NaPi2b antibody (antibody, human IgG1, kappa)
heavy 1: GQVQLVQSGAEVVKPGASVKMSCKASGYTFTGYNIHWVKQAPGQGLEWIGAIYPGNGDTSYKQKFRGRATLTADTSTSTVYMELSSLRSEDSAVYYCARGETARATFAYWGQGTLVTVSSASTKGPSVFPLAPSSKSTSGGTAALGCLVKDYFPEPVTVSWNSGALTSGVHTFPAVLQSSGLYSLSSVVTVPSSSLGTQTYICNVNHKPSNTKVDKKVEPKSCDKTHTCPPCPAPELLGGPSVFLFPPKPKDTLMISRTPEVTCVVVDVSHEDPEVKFNWYVDGVEVHNAKTKPREEQYNSTYRVVSVLTVLHQDWLNGKEYKCKVSNKALPAPIEKTISKAKGQPREPQVYVYPPSRDELTKNQVSLTCLVKGFYPSDIAVEWESNGQPENNYKTTPPVLDSDGSFALVSKLTVDKSRWQQGNVFSCSVMHEALHNHYTQKSLSLSPG
heavy 2: not shown
light: GDIQMTQSPSSLSASVGDRVTITCSASQDIGNFLNWYQQKPGKTVKVLIYYTSSLYSGVPSRFSGSGSGTDYTLTISSLQPEDFATYYCQQYSKLPLTFGQGTKLELKRTVAAPSVFIFPPSDEQLKSGTASVVCLLNNFYPREAKVQWKVDNALQSGNSQESVTEQDSKDSTYSLSSTLTLSKADYEKHKVYACEVTHQGLSSPVTKSFNRGEC
B4: v38591 (humanized anti-NaPi2b antibody, wild-type Fc) (antibody, human IgG1, kappa)
heavy: not shown
light: DVQMTQSPSSLSASVGDRVTITCRASQDVYSYLNWYQQKPGKAVKLLIYYTSRLQSGVPSRFSGSGSGTDYTLTISSLQPEDFATYYCQQYNIFPWTFGQGTKLEIKRTVAAPSVFIFPPSDEQLKSGTASVVCLLNNFYPREAKVQWKVDNALQSGNSQESVTEQDSKDSTYSLSSTLTLSKADYEKHKVYACEVTHQGLSSPVTKSFNRGEC
notes: also called v38591 Wild-type; H1L2

Experiments:
[1] = biological target: T1, human sodium-dependent phosphate …; assay: flow cytometry on HEK293-6e cells transiently transfected with human NaPi2b, antibody 18-24 h at 4 C, anti-human IgG Fc AF647
Procedure: (§1) Briefly, HEK293-6e cells were transfected for ~24 hours to transiently express human NaPi2b, cynomolgus or mouse NaPi2b, at 1 μg of DNA per 1 million cells. Following transfection, 50,000 cells per well were seeded in V-bottom 96-well plates and incubated with 200 nM of primary antibody for 18-24 hours at 4° C. to prevent internalization. […] Following staining and washing, fluorescence was detected by flow cytometry on BD LSRFortessa™ Cell Analyzer (BD Biosciences, Franklin Lake, NJ) with 10,000 minimum events collected per well. The AF647/APC-A GeoMean (fluorescence signal geometric mean, proportional to anti-Human AF647 binding) was calculated for the live singlet cell population for each primary antibody using FlowJo™ v8 software (BD Biosciences, Franklin Lake, NJ). The Bmax and Kd of each primary antibody were calculated using GraphPad Prism Version 9 (GraphPad Software, San Diego, CA)

[2] = biological target: T1, human sodium-dependent phosphate …; assay: flow cytometry, HEK293-6e cells transfected with human NaPi2b
Procedure: as §1

[3] = biological target: T2, cynomolgus monkey NaPi2b; assay: flow cytometry, HEK293-6e cells transfected with cynomolgus NaPi2b
Procedure: as §1

[4] = biological target: T2, cynomolgus monkey NaPi2b; assay: flow cytometry, HEK293-6e cells transfected with cynomolgus NaPi2b; apparent Kd
Procedure: as §1

[5] = biological target: T3, mouse NaPi2b; assay: flow cytometry on HEK293-6e cells transfected with mouse NaPi2b, 24 h at 4 C, anti-human IgG Fc AF647
Procedure: Following transfection, cells were seeded at 50,000 cells/well in conical-bottom 96-well plates and treated with test antibody or antibody-drug conjugate for 24 hours at 4° C. to prevent internalization. […] Following incubation and washing, fluorescence was detected by flow cytometry on a BD LSRFortessa™ Cell Analyzer (BD Biosciences, Franklin Lake, NJ) with 1,000 minimum events collected per well.

Binder | EC50 (read off the curve) [1] | Bmax [2] | Bmax [3] | Kd [4] | binding result [5] | binding result [1] | EC50 (read off the curve) [5]
B1 | ~1 nM | 1610 | 1560 | 6.27 nM | – | – | –
B2 | – | – | – | – | no binding (tested: 200 nM) | no binding (tested: 200 nM) | –
B3 | – | 1900 | 2360 | 31 nM | – | – | –
B4 | – | – | – | – | – | – | ~0.3 nM

From patent publication US20260232827A1 (Zymeworks, published 2026)
